Test results as given in patent US20140274800A1, “TRANSCRIPTION FACTOR DECOYS FOR THE TREATMENT AND PREVENTION OF INFECTIONS CAUSED BY BACTERIA INCLUDING CLOSTRIDIUM DIFFICILE” (PROCARTA BIOSYSTEMS LTD., priority 2013, published 2014).
Entries after “also recorded” stand apart in the source; their conditions may differ.

Assays:
[1] = elevated salt, dilution, extended storage; cited from earlier work
[2] = cited from earlier work
C. difficile [3] = experiment: Cell growth by Optical Density at 420 nm (Example 3); format: cell-based, Clostridium difficile; settings: absorbance 420 nm, over the time course; FIG. 6
Experimental: Optical Density was measured at 420 nm in a standard spectrophotometer quantified cell growth.

C. difficile [4] = experiment: Minimum Inhibitory Concentration (MIC) method; settings: with reference to the compound 7—12 component; 24-well plates, 2 ml BHIS; 1 nM SigH TFD in the loaded nanoparticle; FIG. 7
Experimental: Growth was determined by the Minimum Inhibitory Concentration (MIC) method (Wiegand (2008) Nature Protocols 3: 163-175). Essentially, the antibiotic is diluted to the point where it is ineffective and is no longer able to prevent growth, as judged by the media remaining clear. For C. difficile, these experiments were performed in duplicate in 24-well cell plates containing 2 ml BHIS media with various concentrations of empty nanoparticles or those loaded with the SigH TFD.

C. difficile Strain 630 = experiment: Bioassay to measure sporulation (spore and total cell CFU/ml); format: cell-based, Clostridium difficile
Experimental: All procedures were performed under anaerobic conditions at room temperature unless otherwise stated. All media and agar plates used were placed in an anaerobic chamber at least 24 hours prior to use. A standard bioassay to measure sporulation was performed using untreated cells, those mixed with nanoparticles consisting of either the Spo0A TFD or empty nanoparticles (containing no TFDs), to determine the effect on C. difficile Strain 630 (a laboratory reference strain that has been sequenced).
An initial overnight culture was generated by mixing 100 μl of a glycerol stock of C. difficile (consisting of spore cells of frozen in 10% glycerol and stored at −20° C.) with 10 ml Robertson's Cooked Meat Medium (Robertson (1916) J. Path. Bacteria 20: 327-349). The following day, 10 ml BHIS media (Brain Heart Infusion media, (McFaddin J. F. (1985) Media for Isolation-Cultivation-Identification-Maintenance of medical Bacteria, Vol. I, Williams and Wilkins, Baltimore) supplemented with 0.1% L-cysteine) was inoculated with 1% of the culture grown in Robertson's (consisting mostly of spore cells). […] 100 μl of this culture was used to inoculate 10 ml of BHIS which was allowed to grow until it had reached an OD600 of approximately 0.3. At this stage the growth is due to germination of spores and consists mainly of exponentially growing vegetative cells. This culture was then used to inoculate the experimental cultures that were performed in triplicate in 10 ml cultures in BHIS incubated at 37° C. The three conditions used were: A) untreated cells; B) treated with 1% (v/v) empty nanoparticles to give a final concentration of 8 μg/ml compound 7—12; C) nanoparticles loaded with Spo0A TFD to give final concentrations of 8 μg/ml compound 7—12 and 0.4 μg/ml TFD.
Aliquots were withdrawn from the cultures at TO, 24, 48, 72 and 96 h and used to calculate the total cell density and spore cell density.
Calculation of Spore Cell Density To measure the number of Colony Forming Units per ml of culture (CFU/ml) of spore cells, a 0.5 ml aliquot was withdrawn and exposed to anaerobic conditions for 25 minutes at 60° C. This heat shock step efficiently kills the vegetative cells but not the spores. A serial dilution of the treated sample was prepared in PBS buffer (Phosphate Buffered Saline) over a range of 10^−1 to 10^−6. 10 μl of each dilution was spotted in duplication onto BHIS plates supplemented with 0.1% taurocholate (which enhances germination), the spots allowed to dry and the plates incubated for 24 h at 37° C. The number of colonies was then counted and the CFU/ml of original culture calculated.
To measure CFU/ml of total cells, meaning vegetative cells plus spore cells, a 0.5 ml aliquot was withdrawn and exposed to anaerobic conditions for 25 minutes at room temperature (to control for the time taken to heat shock the spore sample). The samples were then processed as described above.

C. difficile [5] = experiment: Cell growth by Optical Density at 600 nm (Example 2); format: cell-based, Clostridium difficile; settings: OD 600 nm; FIG. 4
Experimental: (§1) Conditions of cell growth were as described in Example 1, with care being taken to ensure that the experimental culture consisted of early-exponential vegetative cells that would enter stationary phase during the course of the experiment. Toxin production is developmentally controlled and only beings to occur as cells enter this phase.
Optical Density was measured at 600 nm in a standard spectrophotometer quantified cell growth.

[6] = system: Toxins A and B (encoded by tcdAB) in C. difficile; experiment: Premier ToxinA&B ELISA of toxin production; format: cell-based, Clostridium difficile; settings: FIG. 5
Experimental: A commercially available ELISA kit (Enzyme-Linked Immunosorbent Assay), Premier™ ToxinA&B, was obtained from Meridian Bioscience Inc. All assays were performed following manufacturers instructions.
as §1
The absorbance of the cells was used to assay an equal amount of biomaterial in each experiment using the described ELISA kit. […] This was set at 100% activity and all other samples were compared to this (FIG. 5). […] At 48 h, where maximal production is expected, only 22% of the untreated level of production was achieved. The maximum level of production for the treated cells was 32% at 72 h.

Nc1c2c([n+](CCCCCCCCCC[n+]3c4c(c(N)c5ccccc53)CCCC4)c3ccccc13)CCCC2.[Cl-].[Cl-] [Compound 7, 10,10′-(decane-1,10-diyl)bis(9-amino-1,2,3,4-tetrahydroacridinium)dichloride]
stability of complexes formed [1]: forms more stable complexes
in vitro toxicity relative to dequalinium [2]: lower toxicity in vitro compared to dequalinium; also recorded: less in vitro toxicity than dequalinium

B1: FapR TFD: dumbbell TFD from FapRDB1/FapRDB2 with FapR recognition site, delivered in compound 7—12 nanoparticles (nucleic acid)
chain 1: CTTGGTTTTTCCAAGTAGAATTAGTACCTGATACTAATAATT
chain 2: GCCTCTTTTTGAGGCAATTATTAGTATCAGGTACTAATTCTA
modifications: nanoparticle delivery, chemistry not fully specified
notes: dumbbell TFD from FapRDB1/FapRDB2 with FapR recognition site, delivered in compound 7—12 nanoparticles
cell growth (growth curves, in words) (C. difficile [3]): failed to grow over the time course of the experiment

B2: SigH TFD: dumbbell TFD from SigH DB1/DB2 with binding sites for both Spo0A and SigH, delivered in compound 7—12 nanoparticles (nucleic acid)
chain 1: CTTGGTTTTTCCAAGTAATACGACAAACTAGTTAAATTTCATTGAAGGAATAAAAATATAATTATAGAATTGATTA
chain 2: GCCTCTTTTTGAGGCTAATCAATTCTATAATTATATTTTTATTCCTTCAATGAAATTTAACTAGTTTGTCGTATTA
modifications: dumbbell decoy delivered in nanoparticles, further chemistry not given here
MIC (C. difficile [4]): 3.4 nM
effect on sporulation (in words) (C. difficile Strain 630; time course similar to Example 1, FIG. 8): block sporulation significantly

B3: TcdR TFD: dumbbell TFD from TcdRDB1/TcdRDB2 with TcdR recognition site, delivered in compound 7—12 nanoparticles (nucleic acid)
chain 1: CTTGGTTTTTCCAAGAAGTTTACAAAATTATATTAGAATAACTTTTTATT
chain 2: CCCTCTTTTTGAGGGAATAAAAAGTTATTCTAATATAATTTTGTAAACTT
modifications: dumbbell, delivered in nanoparticles, chemistry not fully specified
notes: dumbbell TFD from TcdRDB1/TcdRDB2 with TcdR recognition site, delivered in compound 7—12 nanoparticles
cell growth (growth curves, in words) (C. difficile [5]): failed to grow in a manner similar to untreated cells
toxin production, % of untreated level ([6]; at 48 h, untreated cells at 48 h set at 100%): 22%
maximum level of toxin production, % of untreated 48 h level ([6]; at 72 h, untreated cells at 48 h set at 100%): 32%
pattern of Toxins production (in words) ([6]; time course): produces much less of the Toxins

B4: Spo0A TFD: dumbbell TFD from Spo0ADB1/Spo0ADB2 with Spo0A binding site, delivered in compound 7—12 nanoparticles (nucleic acid)
chain 1: CTTGGTTTTTCCAAGAGCTTGTGTAGAAGGTTGTCCACAAGTTGTGAAATTTGTCGAAAAGCTATTTATC
chain 2: CCCTCTTTTTGAGGGGATAAATAGCTTTTCGACAAATTTCACAACTTGTGGACAACCTTCTACACAAGCT
modifications: dumbbell decoy delivered in nanoparticles, further chemistry not given here
density of spores (C. difficile Strain 630; after heat shock 25 minutes at 60° C., 8 μg/ml compound 7—12 and 0.4 μg/ml TFD, FIG. 3): 1.54×10^2 CFU/ml
effect on sporulation (in words) (C. difficile Strain 630; delivery to cells with nanoparticles, Example 1): strong inhibition of sporulation
spores as percentage of total cells (C. difficile Strain 630; treated samples, FIG. 3): < 8.66×10^−5%
reduction of sporulation relative to untreated culture (C. difficile Strain 630; treated versus untreated, FIG. 3): six-fold
density of total cells (C. difficile Strain 630; vegetative cells plus spore cells, nanoparticles giving 8 μg/ml compound 7—12 and 0.4 μg/ml TFD, BHIS, 37° C., FIG. 3): 1.78×10^8 CFU/ml
